Data reported in PMC4383860, “Crystal structure of human persulfide dioxygenase: structural basis of ethylmalonic encephalopathy” (Human Molecular Genetics, 2015).

Assays:
[1] = target: the molecule itself; experiment: native MS; non-denaturing electrospray soft-ionization MS; 15 µM hETHE1 in 15 mM ammonium acetate buffer (pH 7.5); cone voltage 80 V; self-association, dimer
[2] = target: the molecule itself; experiment: SEC-MALS; printed as MALS (multi-angle laser light scattering) of hETHE1 after purification, two peaks; self-association
[3] = target: the molecule itself; experiment: native MS + SEC-MALS; dimer to monomer ratio told for both methods together; self-association, dimer

B1: human ethylmalonic encephalopathy protein 1 (hETHE1), lacking its 20 residue N-terminal mitochondrial targeting sequence (enzyme, UniProt O95571 21-254, looked up)
chain: APILLRQMFEPVSCTFTYLLGDRESREAVLIDPVLETAPRDAQLIKELGLRLLYAVNTHCHADHITGSGLLRSLLPGCQSVISRLSGAQADLHIEDGDSIRFGRFALETRASPGHTPGCVTFVLNDHSMAFTGDALLIRGCGRTDFQQGCAKTLYHSVHEKIFTLPGDCLIYPAHDYHGFTVSTVEEERTLNPRLTLSCEEFVKIMGNLNLPKPQQIDFAVPANMRCGVQTPTA
modifications: Cys247 refined as cysteinyl sulfinic acid (CSD247) in the crystal; +30 Da seen only in the dimer by non-denaturing mass spectrometry
notes: the start at residue 21 is worked out from that statement; Printed masses: monomer 26 116 Da, dimer 52 232 Da; also called human persulfide dioxygenase; sulphur dioxygenase; not shown: His6, N-terminal, cleaved
- stoichiometry N [1]: 2
- stoichiometry N [2]: 4
- dimer to monomer ratio [3]: ~10
